Key:
[1] = molecular target: T1, rHuman ErbB2/Fc Chimera, CF (R&D Systems Cat#1129-ER) (human, UniProt P04626 23-652); test: ECL multispot (MSD) binding assay, antigen spotted on plate, Fab 0.04 uM;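 also: purified Fab incubated 1 h at 20 °C on antigen spots, detected via TAG-labelled antibody, ECL read against each well's blank, with signal-to-blank of at least 4 scored as binder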
T1 construct: Bought recombinant protein; also called human epidermal growth factor 2 receptor; Fc part of the bought chimera not given

[2] = molecular target: T2, rHuman EGF R/Fc Chimera, CF (R&D Systems Cat#344-ER) (human, UniProt P00533 25-645); test: as above
T2 construct: Bought recombinant protein; also called epidermal growth factor receptor; Fc part of the bought chimera not given

[3] = molecular target: T3, rHuman HGF R/c-MET/Fc Chimera, CF (R&D Systems Cat#358-MT/CF) (human, UniProt P08581 25-932); test: as above
T3 construct: Bought recombinant protein; also called HGF R/Fc; hepatocyte growth factor receptor; Fc part of the bought chimera not given

[4] = molecular target: T4, rHuman Notch-1/Fc Chimera, CF (R&D Systems Cat#3647-TK) (human, UniProt P46531 19-526); test: as above
T4 construct: Bought recombinant protein; Fc part of the bought chimera not given

[5] = molecular target: T5, rHuman CD44/Fc Chimera, CF (R&D Systems Cat#3660-CD) (human, UniProt P16070 21-220); test: as above
T5 construct: Bought recombinant protein; Fc part of the bought chimera not given

[6] = molecular target: T6, rHuman IGF-1 sR, CF (R&D Systems Cat#391-GR) (human, UniProt P08069 31-932); test: as above
T6 construct: Bought recombinant soluble receptor; also called insulin-like growth factor-1 soluble receptor

[7] = molecular target: T7, rHuman P-Cadherin/Fc Chimera, CF (R&D Systems Cat#861-PC) (human, UniProt P22223 108-654); test: as above
T7 construct: Bought recombinant protein; Fc part of the bought chimera not given

[8] = molecular target: T8, rHuman Erythropoietin R/Fc Chimera, CF (R&D Systems Cat#963-ER) (human, UniProt P19235 25-250); test: as above
T8 construct: Bought recombinant protein; also called EPO R; EPO R/Fc; Fc part of the bought chimera not given
T8 sequence (looked up): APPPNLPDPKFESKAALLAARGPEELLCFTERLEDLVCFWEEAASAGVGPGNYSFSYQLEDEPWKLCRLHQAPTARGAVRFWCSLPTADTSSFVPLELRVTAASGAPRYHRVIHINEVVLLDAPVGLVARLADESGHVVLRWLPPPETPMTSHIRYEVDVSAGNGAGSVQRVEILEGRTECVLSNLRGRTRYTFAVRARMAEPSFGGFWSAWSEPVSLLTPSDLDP

[9] = molecular target: T9, Recombinant Human DLL4 (R&D Systems Cat#1506-D4/CF) (human, UniProt Q9NR61 27-524); test: as above
T9 construct: Bought recombinant protein; also called delta-like protein 4; rHuman DLL4

[10] = molecular target: T10, Recombinant Human DLL4 (delta-like protein 4) (human, UniProt Q9NR61 27-524); test: SPR, Fab on recombinant human DLL4; (±8.5) at r15c5
T10 construct: Bought recombinant protein; also called rHuman DLL4; Delta-like 4

[11] = molecular target: T10, Recombinant Human DLL4 (delta-like …); test: SPR, Fab on recombinant human DLL4; column head x10^5 applied; (±6.24) at r15c3
[12] = molecular target: T10, Recombinant Human DLL4 (delta-like …); test: SPR, Fab on recombinant human DLL4; column head x10^-3 applied as printed, but KD x ka implies 0.0717 s^-1 unscaled; (±0.00351) at r15c4
[13] = molecular target: T10, Recombinant Human DLL4 (delta-like …); test: SPR, Fab on recombinant human DLL4; (±9.3) at r18c5
[14] = molecular target: T10, Recombinant Human DLL4 (delta-like …); test: SPR, Fab on recombinant human DLL4; column head x10^5 applied; (±4.16) at r18c3
[15] = molecular target: T10, Recombinant Human DLL4 (delta-like …); test: SPR, Fab on recombinant human DLL4; column head x10^-3 applied as printed, but KD x ka implies 0.101 s^-1 unscaled; (±0.0153) at r18c4
[16] = molecular target: T10, Recombinant Human DLL4 (delta-like …); test: SPR, Fab on recombinant human DLL4; (±200) printed at r9c5; ka and kd printed n/a
[17] = molecular target: T10, Recombinant Human DLL4 (delta-like …); test: SPR, Fab on recombinant human DLL4; (±6) at r13c5
[18] = molecular target: T10, Recombinant Human DLL4 (delta-like …); test: SPR, Fab on recombinant human DLL4; column head x10^5 applied; (±0.6) at r13c3
[19] = molecular target: T10, Recombinant Human DLL4 (delta-like …); test: SPR, Fab on recombinant human DLL4; column head x10^-3 applied as printed, but KD x ka implies 0.0845 s^-1 unscaled; (±0.0050) at r13c4
[20] = molecular target: T10, Recombinant Human DLL4 (delta-like …); test: SPR, Fab on recombinant human DLL4; (±7) at r11c5
[21] = molecular target: T10, Recombinant Human DLL4 (delta-like …); test: SPR, Fab on recombinant human DLL4; column head x10^5 applied; (±0.092) at r11c3
[22] = molecular target: T10, Recombinant Human DLL4 (delta-like …); test: SPR, Fab on recombinant human DLL4; column head x10^-3 applied as printed, but KD x ka implies 0.023 s^-1 unscaled; (±0.004) at r11c4
[23] = molecular target: T11, Recombinant Human DLL4 (delta-like protein 4) (human, UniProt Q9NR61 27-524); test: ELISA, Fab on plate-coated recombinant human DLL4
T11 construct: also called rHuman DLL4; Delta-like 4

[24] = molecular target: T11, Recombinant Human DLL4 (delta-like …); test: ECL (MSD) binding assay, Fab on immobilised recombinant human DLL4
[25] = molecular target: T12, Recombinant Human DLL4 (R&D Systems Cat#1506-D4/CF) (human, UniProt Q9NR61 27-524); test: ECL (MSD) binding assay, DLL4 coated on plate, Fab 0.04 uM
T12 construct: Bought recombinant human DLL4 coated on the ECL plate; also called delta-like protein 4; Delta-like 4

T3 sequence (P08581 25-932, change not shown): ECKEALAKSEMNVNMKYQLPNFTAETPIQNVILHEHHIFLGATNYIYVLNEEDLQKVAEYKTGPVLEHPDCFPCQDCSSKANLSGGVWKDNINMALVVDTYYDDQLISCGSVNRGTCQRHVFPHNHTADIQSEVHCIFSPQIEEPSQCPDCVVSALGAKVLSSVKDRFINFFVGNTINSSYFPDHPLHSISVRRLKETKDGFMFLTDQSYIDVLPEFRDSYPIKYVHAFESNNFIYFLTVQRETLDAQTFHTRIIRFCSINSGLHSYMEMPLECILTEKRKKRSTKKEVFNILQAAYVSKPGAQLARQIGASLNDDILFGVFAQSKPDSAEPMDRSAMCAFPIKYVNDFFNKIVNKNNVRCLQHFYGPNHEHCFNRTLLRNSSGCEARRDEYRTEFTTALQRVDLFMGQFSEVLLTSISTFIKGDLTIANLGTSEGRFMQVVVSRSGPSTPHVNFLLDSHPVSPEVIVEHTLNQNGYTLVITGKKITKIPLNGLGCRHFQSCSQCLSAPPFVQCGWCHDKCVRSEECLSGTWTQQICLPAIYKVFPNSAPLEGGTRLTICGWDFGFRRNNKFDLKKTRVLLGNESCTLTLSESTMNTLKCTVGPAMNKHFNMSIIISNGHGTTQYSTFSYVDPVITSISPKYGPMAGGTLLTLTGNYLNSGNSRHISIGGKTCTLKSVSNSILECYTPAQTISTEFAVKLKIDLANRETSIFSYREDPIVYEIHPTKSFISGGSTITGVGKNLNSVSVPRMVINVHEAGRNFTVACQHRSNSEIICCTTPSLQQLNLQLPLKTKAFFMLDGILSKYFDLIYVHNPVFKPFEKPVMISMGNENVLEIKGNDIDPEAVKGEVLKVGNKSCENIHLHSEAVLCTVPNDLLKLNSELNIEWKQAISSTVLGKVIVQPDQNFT

B1: Fab VH5-51_IGHD5-18*01>3_IGHJ4*01 G100K/G104T (H:KT) & V3-4_IGLJ1*01 I98A (Fab, V domains shown)
VH: EVQLVQSGAEVKKPGESLKISCKGSGYSFTSYWIGWVRQMPGKGLEWMGIIYPGDSDTRYSPSFQGQVTISADKSISTAYLQWSSLKASDTAMYYCARRKYSYTYDYFDYWGQGTLVTVSS
VL: QTVVTQEPSFSVSPGGTVTLTCGLSSGSVSTSYYPSWYQQTPGQAPRTLIYSTNTRSSGVPDRFSGSILGNKAALTITGAQADDESDYYCVLYMGSGASYVFGTGTKVTVL
notes: Fab; Expressed from Plasmid A (CH1, His6 and Flag tags) and Plasmid E (lambda CL); also called KT & I98A
ECL signal [1]: 1380
ECL signal [2]: 1050
ECL signal [3]: 1230
ECL signal [4]: 700
ECL signal [5]: 708
ECL signal [6]: 1100
ECL signal [7]: 359
ECL signal [8]: 584
ECL signal [9]: 15100

B2: Fab VH5-51_IGHD5-18*01>3_IGHJ4*01 G100K/G104T G24T/S28R/G35V & V3-4_IGLJ1*01 (Fab, V domains shown)
VH: EVQLVQSGAEVKKPGESLKISCKTSGYRFTSYWIVWVRQMPGKGLEWMGIIYPGDSDTRYSPSFQGQVTISADKSISTAYLQWSSLKASDTAMYYCARRKYSYTYDYFDYWGQGTLVTVSS
VL: QTVVTQEPSFSVSPGGTVTLTCGLSSGSVSTSYYPSWYQQTPGQAPRTLIYSTNTRSSGVPDRFSGSILGNKAALTITGAQADDESDYYCVLYMGSGISYVFGTGTKVTVL
notes: Fab made in E. coli; VH was cloned in Plasmid A (CH1, His6 and Flag tags) and VL in Plasmid E (lambda CL); also called KT TRV; H:KT TRV & L:wt
Kd [10]: 36.2 nM
kon [11]: 2.09e+06 M⁻¹ s⁻¹
koff [12]: 7.17e-05 s⁻¹

B3: Fab VH5-51_IGHD5-18*01>3_IGHJ4*01 G100K/G104T G24T/S28R/G35V & V3-4_IGLJ1*01 M94R/S96M (Fab, V domains shown)
VH: EVQLVQSGAEVKKPGESLKISCKTSGYRFTSYWIVWVRQMPGKGLEWMGIIYPGDSDTRYSPSFQGQVTISADKSISTAYLQWSSLKASDTAMYYCARRKYSYTYDYFDYWGQGTLVTVSS
VL: QTVVTQEPSFSVSPGGTVTLTCGLSSGSVSTSYYPSWYQQTPGQAPRTLIYSTNTRSSGVPDRFSGSILGNKAALTITGAQADDESDYYCVLYRGMGISYVFGTGTKVTVL
notes: Fab made in E. coli; VH was cloned in Plasmid A (CH1, His6 and Flag tags) and VL in Plasmid E (lambda CL); also called H:KT TRV & L:RM
Kd [13]: 40.3 nM
kon [14]: 2.53e+06 M⁻¹ s⁻¹
koff [15]: 0.000101 s⁻¹

B4: Fab VH5-51_IGHD5-18*01>3_IGHJ4*01 & V3-4_IGLJ1*01 (Fab, V domains shown)
VH: EVQLVQSGAEVKKPGESLKISCKGSGYSFTSYWIGWVRQMPGKGLEWMGIIYPGDSDTRYSPSFQGQVTISADKSISTAYLQWSSLKASDTAMYYCARRGYSYGYDYFDYWGQGTLVTVSS
VL: QTVVTQEPSFSVSPGGTVTLTCGLSSGSVSTSYYPSWYQQTPGQAPRTLIYSTNTRSSGVPDRFSGSILGNKAALTITGAQADDESDYYCVLYMGSGISYVFGTGTKVTVL
notes: Germline Fab made in E. coli; also called parental; wildtype
Kd [16]: 4800 nM

B5: Fab VH5-51_IGHD5-18*01>3_IGHJ4*01 G100K/G104T S28R & V3-4_IGLJ1*01 (Fab, V domains shown)
VH: EVQLVQSGAEVKKPGESLKISCKGSGYRFTSYWIGWVRQMPGKGLEWMGIIYPGDSDTRYSPSFQGQVTISADKSISTAYLQWSSLKASDTAMYYCARRKYSYTYDYFDYWGQGTLVTVSS
VL: QTVVTQEPSFSVSPGGTVTLTCGLSSGSVSTSYYPSWYQQTPGQAPRTLIYSTNTRSSGVPDRFSGSILGNKAALTITGAQADDESDYYCVLYMGSGISYVFGTGTKVTVL
notes: Fab made in E. coli; VH was cloned in Plasmid A (CH1, His6 and Flag tags) and VL in Plasmid E (lambda CL); also called KT S28R; H:KT S28R & L:wt
Kd [17]: 114 nM
kon [18]: 740000 M⁻¹ s⁻¹
koff [19]: 8.45e-05 s⁻¹

B6: Fab VH5-51_IGHD5-18*01>3_IGHJ4*01 G100K/G104T & V3-4_IGLJ1*01 (Fab, V domains shown)
VH: EVQLVQSGAEVKKPGESLKISCKGSGYSFTSYWIGWVRQMPGKGLEWMGIIYPGDSDTRYSPSFQGQVTISADKSISTAYLQWSSLKASDTAMYYCARRKYSYTYDYFDYWGQGTLVTVSS
VL: QTVVTQEPSFSVSPGGTVTLTCGLSSGSVSTSYYPSWYQQTPGQAPRTLIYSTNTRSSGVPDRFSGSILGNKAALTITGAQADDESDYYCVLYMGSGISYVFGTGTKVTVL
notes: Fab made in E. coli; VH was cloned in Plasmid A (CH1, His6 and Flag tags) and VL in Plasmid E (lambda CL); also called KT; H:KT & L:wt
Kd [20]: 355 nM
kon [21]: 64500 M⁻¹ s⁻¹
koff [22]: 2.3e-05 s⁻¹

B7: Fab VH5-51_IGHD5-18*01>3_IGHJ4*01 G100K/G104T (H:KT) & V3-4_IGLJ1*01 G23R (Fab, V domains shown)
VH: EVQLVQSGAEVKKPGESLKISCKGSGYSFTSYWIGWVRQMPGKGLEWMGIIYPGDSDTRYSPSFQGQVTISADKSISTAYLQWSSLKASDTAMYYCARRKYSYTYDYFDYWGQGTLVTVSS
VL: QTVVTQEPSFSVSPGGTVTLTCRLSSGSVSTSYYPSWYQQTPGQAPRTLIYSTNTRSSGVPDRFSGSILGNKAALTITGAQADDESDYYCVLYMGSGISYVFGTGTKVTVL
notes: Fab (CH1 with His6/Flag tags from Plasmid A, lambda CL from Plasmid E); also called G100K/G104T & G23R
ELISA signal [23]: 0.11
ECL signal [24]: 68200

B8: Fab VH5-51_IGHD5-18*01>3_IGHJ3*01 & V3-4_IGLJ1*01 (Fab, V domains shown)
VH: EVQLVQSGAEVKKPGESLKISCKGSGYSFTSYWIGWVRQMPGKGLEWMGIIYPGDSDTRYSPSFQGQVTISADKSISTAYLQWSSLKASDTAMYYCARRGYSYGYDAFDVWGQGTLVTVSS
VL: QTVVTQEPSFSVSPGGTVTLTCGLSSGSVSTSYYPSWYQQTPGQAPRTLIYSTNTRSSGVPDRFSGSILGNKAALTITGAQADDESDYYCVLYMGSGISYVFGTGTKVTVL
notes: Fab; the JH germline segment IGHJ4*01 of the parent is swapped for IGHJ3*01; Constant parts come from Plasmid A (CH1, His6, Flag) and Plasmid E (lambda CL); also called J-swap mutant IGHJ3*01
Signal/Noise [25]: 3.1

From patent publication US20120316071A1 (published 2012)
